Measurements published in the Human Domainome abundance scans (Beltran et al. 2025).
± gives the uncertainty stated by the source.

B1: Dynamin-binding protein, residues 242 to 304; numbered along this chain, Q6XZF7 (parent)
chain: EEPGTYGVALYRFQALEPNELDFEVGDKIRILATLEDGWLEGSLKGRTGIFPYRFVKLCPDTR
B2: Retinoic acid receptor beta, residues 85 to 161; numbered along this chain, P10826 (parent)
chain: YKPCFVCQDKSSGYHYGVSACEGCKGFFRRSIQKNMIYTCHRDKNCVINKVTRNRCQYCRLQKCFEVGMSKESVRND

Variants of: B1
Test: abundance fitness (aPCA) (normalised: wild type 0, dead -1); higher = more abundant; growth selection in yeast, the domain comes from the species named
Conditions: Homo sapiens

Abundance fitness, by site and new letter:
L10: G -0.743 ± 0.098 | I 0.028 ± 0.059 | C -0.477 ± 0.073 | H -0.566 ± 0.12 | W -0.397 ± 0.15 | M 0.048 ± 0.094 | K -0.384 ± 0.21 | N -0.827 ± 0.11 | V -0.252 ± 0.054 | S -0.457 ± 0.065 | F -0.873 ± 0.12 | Q -0.564 ± 0.21 | A -0.761 ± 0.14 | E -0.655 ± 0.25 | D -0.679 ± 0.11 | P -0.7 ± 0.15
F13: H 0.559 ± 0.059 | M -0.072 ± 0.11 | G -0.677 ± 0.085 | N -0.023 ± 0.057 | K -0.207 ± 0.15 | A -0.804 ± 0.16 | D -0.585 ± 0.086 | L -0.74 ± 0.11
V8: D -0.717 ± 0.15 | Y -0.028 ± 0.066 | S -0.701 ± 0.096 | E -0.206 ± 0.15 | Q -0.449 ± 0.35 | N -0.681 ± 0.12 | I 0.064 ± 0.061 | K -0.427 ± 0.17 | P -0.865 ± 0.2 | H -0.321 ± 0.11 | W -0.738 ± 0.2 | R -0.302 ± 0.086 | F -0.373 ± 0.075 | G -0.779 ± 0.092 | L -0.192 ± 0.069 | C -0.531 ± 0.099 | A -0.691 ± 0.13 | T -0.047 ± 0.076
Y11: S -0.196 ± 0.045 | M -0.024 ± 0.11 | R 0.206 ± 0.058 | V -0.086 ± 0.049 | H 0.022 ± 0.067 | T 0.044 ± 0.06 | G -0.429 ± 0.067 | N -0.137 ± 0.057 | C -0.124 ± 0.061 | E -0.02 ± 0.1 | P -0.784 ± 0.16 | Q 0.026 ± 0.21 | F 0.01 ± 0.048 | A 0.217 ± 0.061 | D -0.281 ± 0.067 | I -0.14 ± 0.055 | K 0.343 ± 0.11 | L -0.084 ± 0.056
Y6: Q -0.927 ± 0.31 | I -0.123 ± 0.053 | M -0.394 ± 0.16 | L -0.309 ± 0.066 | T -0.45 ± 0.094 | E -0.718 ± 0.2 | R -0.712 ± 0.1 | V -0.135 ± 0.052 | N -0.785 ± 0.095 | S -0.672 ± 0.073 | F 0.071 ± 0.048 | H -0.498 ± 0.1 | D -0.754 ± 0.11 | G -0.696 ± 0.079 | C -0.502 ± 0.083 | K -0.653 ± 0.2 | W -0.498 ± 0.27
E1: D -0.369 ± 0.081 | Y -0.23 ± 0.083 | F -0.277 ± 0.11 | C -0.189 ± 0.11 | S -0.112 ± 0.068 | R -0.063 ± 0.12 | I 0.005 ± 0.077 | N -0.337 ± 0.087 | M -0.02 ± 0.17 | H -0.8 ± 0.18 | T -0.111 ± 0.1 | G -0.163 ± 0.067 | A -0.512 ± 0.13 | L -0.041 ± 0.087 | V -0.001 ± 0.052 | K 0.009 ± 0.14
T5: G -0.765 ± 0.093 | N -0.3 ± 0.081 | F -0.057 ± 0.058 | E -0.61 ± 0.17 | L 0.052 ± 0.059 | W -0.132 ± 0.13 | K -0.253 ± 0.16 | D -0.587 ± 0.099 | S -0.282 ± 0.055 | A -0.083 ± 0.066 | R -0.225 ± 0.072 | I -0.183 ± 0.065 | Q 0 ± 0.16 | C -0.143 ± 0.059 | Y -0.214 ± 0.066
P3: W -0.19 ± 0.29 | M 0.207 ± 0.15 | L 0.108 ± 0.071 | E -0.033 ± 0.35 | H 0.088 ± 0.066 | T 0.126 ± 0.075 | I 0.273 ± 0.073 | C -0.221 ± 0.077 | Y 0.053 ± 0.07 | R -0.114 ± 0.059 | A -0.337 ± 0.1 | F 0.059 ± 0.082 | G -0.222 ± 0.08 | Q -0.026 ± 0.14 | S 0.008 ± 0.053 | V -0.169 ± 0.068 | K 0.18 ± 0.16
A9: Y -0.578 ± 0.078 | H -0.967 ± 0.16 | K -0.824 ± 0.26 | N -0.812 ± 0.14 | G -0.443 ± 0.072 | S -0.566 ± 0.067 | C -0.771 ± 0.096 | L -0.662 ± 0.1 | T -0.623 ± 0.15 | E -0.73 ± 0.41 | P -0.752 ± 0.17 | W -0.6 ± 0.22 | V -0.853 ± 0.1 | I -0.737 ± 0.097 | Q -0.821 ± 0.44 | R -0.816 ± 0.11 | D -1.01 ± 0.16
R12: N 0.009 ± 0.062 | A 0.177 ± 0.06 | S -0.12 ± 0.051 | E -0.469 ± 0.21 | P -0.126 ± 0.1 | F -0.91 ± 0.13 | G -0.071 ± 0.051 | K -0.276 ± 0.17 | I -0.737 ± 0.1 | Y -0.834 ± 0.12 | M -0.589 ± 0.25 | Q -0.821 ± 0.35 | C -0.477 ± 0.08 | H -0.446 ± 0.11 | T -0.237 ± 0.085 | L -0.637 ± 0.093 | V -0.508 ± 0.075
G4: D -0.004 ± 0.064 | V 0.008 ± 0.052 | Q 0.059 ± 0.15 | T 0.103 ± 0.077 | Y -0.044 ± 0.059 | R -0.187 ± 0.059 | P 0.214 ± 0.11 | A -0.095 ± 0.059 | E 0.622 ± 0.14 | H 0.131 ± 0.066 | N -0.032 ± 0.058 | K -0.211 ± 0.15 | I 0.078 ± 0.064 | L -0.05 ± 0.064 | W -0.312 ± 0.16 | C -0.135 ± 0.057 | F 0.009 ± 0.051 | M 0.283 ± 0.28
G7: P -0.86 ± 0.25 | V 0.006 ± 0.049 | Y -0.661 ± 0.1 | A 0.36 ± 0.056 | R -0.781 ± 0.1 | D -0.857 ± 0.14 | E -0.209 ± 0.18 | N -0.719 ± 0.11 | C 0.231 ± 0.045 | S -0.292 ± 0.051 | Q -0.258 ± 0.22 | W -1.27 ± 0.41 | F -0.734 ± 0.092
E2: Q -0.498 ± 0.19 | D -0.151 ± 0.066 | G -0.166 ± 0.054 | A -0.586 ± 0.099 | S -0.567 ± 0.087 | H 0.127 ± 0.069 | T -0.024 ± 0.076 | M -0.049 ± 0.15 | L -0.011 ± 0.066 | I -0.013 ± 0.072 | K -0.512 ± 0.22 | W 0.044 ± 0.29 | Y 0.015 ± 0.056 | V -0.228 ± 0.058 | C -0.367 ± 0.082 | N 0.016 ± 0.068 | R -0.321 ± 0.085

Variants of: B2
Test: as above
Conditions: Homo sapiens

Abundance fitness, by site and new letter:
S73: K 0.131 ± 0.052 | H -0.061 ± 0.1 | L 0.088 ± 0.04 | Y -0.231 ± 0.092 | M 0.092 ± 0.055 | G 0.017 ± 0.034 | D 0.133 ± 0.056 | P 0.002 ± 0.068 | W -0.091 ± 0.046 | Q -0.043 ± 0.057 | V 0.001 ± 0.042 | F -0.016 ± 0.086 | T -0.106 ± 0.065 | E 0.091 ± 0.046 | A 0.1 ± 0.043 | R 0.016 ± 0.034
K71: W -0.139 ± 0.045 | N -0.04 ± 0.095 | E 0.103 ± 0.048 | C -0.148 ± 0.072 | S -0.005 ± 0.051 | Y -0.216 ± 0.1 | G -0.004 ± 0.038 | Q -0.007 ± 0.072 | F -0.189 ± 0.087 | P -0.154 ± 0.089 | L -0.027 ± 0.042 | T 0.067 ± 0.067 | M -0.104 ± 0.054 | H -0.24 ± 0.12 | V -0.151 ± 0.041 | I -0.078 ± 0.099 | A -0.027 ± 0.053 | D -0.085 ± 0.066 | R -0.102 ± 0.041
E72: F -0.337 ± 0.13 | C -0.075 ± 0.081 | M -0.098 ± 0.053 | L -0.237 ± 0.051 | A -0.113 ± 0.048 | P -0.101 ± 0.076 | N 0.04 ± 0.07 | K -0.191 ± 0.062 | H -0.117 ± 0.12 | D 0.127 ± 0.059 | R -0.151 ± 0.043 | W -0.271 ± 0.068 | G -0.128 ± 0.038 | Q -0.134 ± 0.075 | I -0.184 ± 0.14 | S -0.037 ± 0.048 | T -0.004 ± 0.064 | V -0.163 ± 0.048
R75: Q 0.163 ± 0.095 | G 0.09 ± 0.034 | C 0.175 ± 0.065 | V 0.046 ± 0.042 | A 0.137 ± 0.044 | Y 0.118 ± 0.077 | K -0.018 ± 0.065 | L 0.102 ± 0.04 | E 0.124 ± 0.045 | D -0.051 ± 0.078 | P 0.039 ± 0.073 | F -0.187 ± 0.12 | N 0.073 ± 0.092 | H 0.078 ± 0.11 | T -0.02 ± 0.06 | S -0.045 ± 0.055 | W 0.065 ± 0.043
D77: F -0.183 ± 0.32 | E 0.125 ± 0.073 | A -0.126 ± 0.063 | Q 0.066 ± 0.12 | R -0.194 ± 0.053 | P 0.096 ± 0.073 | M 0.007 ± 0.084 | T -0.348 ± 0.12 | N -0.333 ± 0.1 | S -0.093 ± 0.065 | L -0.202 ± 0.073 | V -0.054 ± 0.057 | K -0.082 ± 0.14 | I -0.06 ± 0.11 | Y 0.044 ± 0.1 | W -0.347 ± 0.086 | H 0.087 ± 0.16
N76: F -0.012 ± 0.11 | L 0.013 ± 0.054 | G -0.048 ± 0.049 | M -0.061 ± 0.082 | S 0.148 ± 0.053 | E 0.194 ± 0.061 | C -0.105 ± 0.079 | K 0.01 ± 0.058 | T -0.15 ± 0.088 | R -0.039 ± 0.046 | I -0.149 ± 0.13 | P 0.146 ± 0.066 | A 0.084 ± 0.054 | V 0.047 ± 0.054 | Q 0.058 ± 0.1 | H -0.144 ± 0.21 | Y 0.046 ± 0.1 | D 0.018 ± 0.079
V74: L -0.018 ± 0.041 | D 0.094 ± 0.072 | T -0.012 ± 0.064 | C 0.003 ± 0.064 | P -0.068 ± 0.078 | H -0.13 ± 0.15 | Y -0.297 ± 0.12 | F -0.064 ± 0.081 | S -0.035 ± 0.048 | Q -0.012 ± 0.066 | M -0.027 ± 0.059 | W -0.14 ± 0.052 | G -0.081 ± 0.041 | I 0.036 ± 0.062 | K -0.219 ± 0.065 | R -0.188 ± 0.043 | N -0.067 ± 0.086
S70: W -0.417 ± 0.065 | V 0.038 ± 0.044 | T 0.067 ± 0.053 | R -0.053 ± 0.039 | Y -0.291 ± 0.098
